Changes are numbered by the printed parent chain. Names and notes keep the numbering of the source.
Columns and labels:
[1] = target: T1, HLA-A*02:01 on BLCL HEN cells (Homo sapiens, HLA-A*02:01, strain); assay: flow cytometry on cells; 150,000 BLCL cells with various concentrations of purified mAbs in PBS 0.5% BSA, 30 min at room temperature; PE goat anti-human IgG; details: one partner purified
T1 construct: HLA-A*02:01 naturally expressed on BLCL HEN; beta-2-microglobulin of the cells; also called BLCL HEN expressing HLA-A2; source: endogenous, on BLCL HEN cells (HLA-A*02:01/ HLA-A*0101); copies: + +

[2] = target: T2, HLA-A2 on stably transfected B721.221 cells (Homo sapiens, HLA-A*02:01, strain); assay: as above; details: one partner purified
T2 construct: beta-2-microglobulin of the cells; also called 721.221(A2); B721.221 A2; source: B721.221 cells, stably transfected, on the cell surface; copies: + +

[3] = target: T3, HLA-A*02:01 on a single antigen bead (Homo sapiens, HLA-A*02:01, strain); assay: single antigen flow bead assay (Luminex); LabScreen single-antigen LS1A04 beads with 97 MHC class I alleles, Luminex 100 analyser; positivity threshold MFI 1000; details: both partners purified
T3 construct: beta-2-microglobulin; source: bought: One Lambda (LabScreen single-antigen LS1A04); copies: + +

Measured: binding result

B1: C4.4 (antibody, V domains shown)
VH: EVQLVESGAEVKKPGESLKISCKASGYRFTNYWIGWVRQMPGKGLEWMGIIYPYHSDTQYTPSFQGQVTISADESTTTAYLHLSSLKASDTAIYYCVRLRGDFVPVVFAPYFDSWGQGTLVT
VL: QSALTQPRSVSGSPGQSVTISCTGSRSDAHTFNYVSWYQQHPGKAPKLMICDVNQRPSGVPDRFSGSKSGDAASLTISGLQAEDEADYYCFSYDANYTLGVFGTGTKVTVL
notes: numbers count on: the heavy chain from the first amino acid of its leader peptide; human heavy chain constant domains of the IgG-AbVec expression vector; human lambda light chain constant domain of the Iglambda-AbVec expression vector; Only the heavy chain was mutated; also called cluster D74H//S80 T//W102 L//M112I//G121D//R124P
binds: all assays above

B2: C4.18 (antibody, V domains shown)
VH: B1 VH with T61S
VL: B1 VL
notes: numbers count on: the heavy chain from the first amino acid of its leader peptide; human heavy chain constant domains of the IgG-AbVec expression vector; human lambda light chain constant domain of the Iglambda-AbVec expression vector; Only the heavy chain was mutated; also called cluster D74H//W102 L//M112I//G121D//R124P
binds: all assays above
